Assay results reported in PMC8982406.
Changes are numbered by the printed parent chain. Names may count otherwise.

B1: ZC4H2 (wild type; mapping and mutation co-IPs), Q9NQZ6 A200V (protein)
chain: MADEQEIMCKLESIKEIRNKTLQMEKIKARLKAEFEALESEERHLKEYKQEMDLLLQEKMAHVEELRLIHADINVMENTIKQSENDLNKLLESTRRLHDEYKPLKEHVDALRMTLGLQRLPDLCEEEEKLSLDYFEKQKAEWQTEPQEPPIPESLAAAAAAAQQLQVARKQDTRQTATFRQQPPPMKACLSCHQQIHRNVPICPLCKAKSRSRNPKKPKRKQDE
B2: ZC4H2 (wild type; mapping and mutation co-IPs), Q9NQZ6 R198Q (protein)
chain: B1 chain with R198Q, V200A
B3: ZC4H2 (wild type; mapping and mutation co-IPs), Q9NQZ6 R213W (protein)
chain: B1 chain with V200A, R213W
B4: ZC4H2 (wild type; mapping and mutation co-IPs), Q9NQZ6 V63L (protein)
chain: B1 chain with V63L, V200A
B5: full-length RLIM protein (wild type; mapping and mutation co-IPs), Q9NVW2 R599C (protein)
chain: MENSDSNDKGSGDQSAAQRRSQMDRLDREEAFYQFVNNLSEEDYRLMRDNNLLGTPGESTEEELLRRLQQIKEGPPPQNSDENRGGDSSDDVSNGDSIIDWLNSVRQTGNTTRSGQRGNQSWRAVSRTNPNSGDFRFSLEINVNRNNGSQNSENENEPSARRSSGENVENNSQRQVENPRSESTSARPSRSERNSTEALTEVPPTRGQRRARSRSPDHRRTRARAERSRSPLHPMSEIPRRSHHSISSQTFEHPLVNETEGSSRTRHHVTLRQQISGPELLSRGLFAASGTRNASQGAGSSDTAASGESTGSGQRPPTIVLDLQVRRVRPGEYRQRDSIASRTRSRSQTPNNTVTYESERGGFRRTFSRSERAGVRTYVSTIRIPIRRILNTGLSETTSVAIQTMLRQIMTGFGELSYFMYSDSDSEPTGSVSNRNMERAESRSGRGGSGGGSSSGSSSSSSSSSSSSSSSSSSSSPSSSSGGESSETSSDLFEGSNEGSSSSGSSGARREGRHRAPVTFDESGSLPFLSLAQFFLLNEDDDDQPRGLTKEQIDNLAMRSFGENDALKTCSVCITEYTEGNKLRKLPCSHEYHVHCIDCWLSENSTCPICRRAVLASGNRESVV
B6: full-length RLIM protein (wild type; mapping and mutation co-IPs), Q9NVW2 R387C (protein)
chain: B5 chain with R387C, C599R
B7: full-length RLIM protein (wild type; mapping and mutation co-IPs), Q9NVW2 R365C (protein)
chain: B5 chain with R365C, C599R
B8: full-length RLIM protein (wild type; mapping and mutation co-IPs), Q9NVW2 R611C (protein)
chain: B5 chain with C599R, R611C
B9: full-length RLIM protein (wild type; mapping and mutation co-IPs), Q9NVW2 P77L (protein)
chain: B5 chain with P77L, C599R
B10: full-length RLIM protein (wild type; mapping and mutation co-IPs), Q9NVW2 P587R (protein)
chain: B5 chain with P587R, C599R
B11: full-length RLIM protein (wild type; mapping and mutation co-IPs), Q9NVW2 D598N (protein)
chain: B5 chain with D598N, C599R
B12: full-length RLIM protein (wild type; mapping and mutation co-IPs), Q9NVW2 Y356C (protein)
chain: B5 chain with Y356C, C599R

How the values were obtained:
Test in all cases: co-IP (IP: FLAG, IB: myc), blot quantification
[1] = molecular target: full-length RLIM protein (wild type; mapping and mutation co-IPs) (UniProt Q9NVW2); conditions: ZC4H2-myc + RLIM-FLAG, MG132 +; parent: 1.00
[2] = molecular target: T1, full-length RLIM protein (wild type; mapping and mutation co-IPs), Q9NVW2; conditions: chain shown with the change; ZC4H2-myc + RLIM-FLAG, MG132 +; parent: 1.00
T1 chain: B5 chain with C599R

[3] = molecular target: T2, ZC4H2 (wild type; mapping and mutation co-IPs), Q9NQZ6; conditions: chain shown with the change; hRLIM-myc + ZC4H2-FLAG, MG132 +, HEK293 cells; parent: 1.00
T2 chain: B1 chain with V200A

Row | Molecule | ratio to parent [2] | ratio to parent [3] | also measured
1 | ZC4H2 (wild type; mapping and mutation co-IPs) (from UniProt Q9NQZ6) A201S |  |  | ratio to parent [1]: 0.13
2 | B1 | 0.18 |  | 
3 | B2 | 0.15 |  | 
4 | B3 | 0.19 |  | 
5 | B4 | 1.2 |  | 
6 | B5 |  | 0.65 | 
7 | B6 |  | 0.18 | 
8 | B7 |  | 1.02 | 
9 | B8 |  | 0.17 | 
10 | B9 |  | 0.95 | 
11 | B10 |  | 0.72 | 
12 | B11 |  | 0.23 | 
13 | B12 |  | 0.91 | 
